Test results from patent US20180360907A1.

Molecular target: CCR5 on human monocytes (human) (UniProt P51681)
Assay: cell-based or functional assay

## human CCL4 (MIP-1β) (from UniProt P13236 24-92) (ligand)
  chemotactic index of human monocytes, without RAP-103 (times over control): 2
